The source of these data is article PMC10328077 (2023).

The chains are these.
B1: FH402Y, isolated from plasma of FH402Y homozygous healthy donors (natural protein)
chain: EDCNELPPRRNTEILTGSWSDQTYPEGTQAIYKCRPGYRSLGNVIMVCRKGEWVALNPLRKCQKRPCGHPGDTPFGTFTLTGGNVFEYGVKAVYTCNEGYQLLGEINYRECDTDGWTNDIPICEVVKCLPVTAPENGKIVSSAMEPDREYHFGQAVRFVCNSGYKIEGDEEMHCSDDGFWSKEKPKCVEISCKSPDVINGSPISQKIIYKENERFQYKCNMGYEYSERGDAVCTESGWRPLPSCEEKSCDNPYIPNGDYSPLRIKHRTGDEITYQCRNGFYPATRGNTAKCTSTGWIPAPRCTLKPCDYPDIKHGGLYHENMRRPYFPVAVGKYYSYYCDEHFETPSGSYWDHIHCTQDGWSPAVPCLRKCYFPYLENGYNQNYGRKFVQGKSIDVACHPGYALPKAQTTVTCMENGWSPTPRCIRVKTCSKSSIDIENGFISESQYTYALKEKAKYQCKLGYVTADGETSGSITCGKDGWSAQPTCIKSCDIPVFMNARTKNDFTWFKLNDTLDYECHDGYESNTGSTTGSIVCGYNGWSDLPICYERECELPKIDVHLVPDRKKDQYKVGEVLKFSCKPGFTIVGPNSVQCYHFGLSPDLPICKEQVQSCGPPPELLNGNVKEKTKEEYGHSEVVEYYCNPRFLMKGPNKIQCVDGEWTTLPVCIVEESTCGDIPELEHGWAQLSSPPYYYGDSVEFNCSESFTMIGHRSITCIHGVWTQLPQCVAIDKLKKCKSSNLIILEEHLKNKKEFDHNSNIRYRCRGKEGWIHTVCINGRWDPEVNCSMAQIQLCPPPPQIPNSHNMTTTLNYRDGEKVSVLCQENYLIQEGEEITCKDGRWQSIPLCVEKIPCSQPPQIEHGTINSSRSSQESYAHGTKLSYTCEGGFRISEENETTCYMGKWSSPPQCEGLPCKSPPEISHGVVAHMSDSYQYGEEVTYKCFEGFGIDGPAIAKCLGEKWSHPPSCIKTDCLSLPSFENAIPMGEKKDVYKAGEQVTYTCATYYKMDGASNVTCINSRWTGRPTCRDTSCVNPPTVQNAYIVSRQMSKYPSGERVRYQCRSPYEMFGDEEVMCLNGNWTEPPQCKDSTGKCGPPPPIDNGDITSFPLSVYAPASSVEYQCQNLYQLEGNKRITCRNGQWSEPPKCLHPCVISREIMENYNIALRWTAKQKLYSRTGESVEFVCKRGYRLSSRSHTLRTTCWDGKLEYPTCAKR
B2: recombinant N-terminal fragment apoE2(1–165) (domain or fragment)
chain: KVEQAVETEPEPELRQQTEWQSGQRWELALGRFWDYLRWVQTLSEQVQEELLSSQVTQELRALMDETMKELKAYKSELEEQLTPVAEETRARLSKELQAAQARLGADMEDVCGRLVQYRGEVQAMLGQSTEELRVRLASHLRKLRKRLLRDADDLQKCLAVYQAG
modifications: NT647 dye (Monolith RED-NHS labelling kit) in the MST; unlabelled in the ELISA and the cross-linking

The target in assay [1] is B2. The assay is described as follows: MST.
Assay [2] has as its target FH402H, isolated from plasma of FH402H homozygous healthy donors (human, UniProt P08603 19-1231, Y402H). In words: MST.

In the case of B1, the Kd in assay [1] is 200 nM.

B2 showed a Kd in assay [2] of 400 nM.
